Key:
Assay in all cases: EMSA
Conditions in all cases: EMSA: 0.5 uM dsDNA probe, semi-pure TF titrated, PBS + NP40, 10 uL; 6% polyacrylamide gel, 0.5x TBE, 100 V 1 h, room temperature running buffer; pH and …
[1] = test system: GntR_1482 (Clostridium thermocellum DSM 1313)
[2] = test system: Rex_2471 (Clostridium thermocellum DSM 1313)
[3] = test system: BlaI_1845 (Clostridium thermocellum DSM 1313)
[4] = test system: TetR_0692 (Clostridium thermocellum DSM 1313)
[5] = test system: GlyR2 (Clostridium thermocellum DSM 1313)

For “ACCCCTGATTATGACAACATGACAGTAACAATCCGG (double strand) [GntR_1482 test oligo]”, the binding signal (% probe shifted) [1] was > 70.

“ATTATTTTATTTTGTTATATTTTTAACAAAAAAATTATT (double strand) [Rex_2471 test oligo]” was tested, and the binding signal (% probe shifted) [2] was > 70.

In the case of “CAGGATGTAATGGCTTGTCGTCAGACCGGAG (double strand) [Rex_2471 negative oligo]”, the binding signal (% probe shifted) [2] is reported as < 10.

“GACCATAACAATAGTCCAAGTTCATCT (double strand) [BlaI_1845 test oligo]” was tested, and the binding signal (% probe shifted) [3] was > 70.

For “TAAGCAGGGATATGACCACGTGGTCACCGTCCTCTG (double strand) [TetR_0692 test oligo]”, the binding signal (% probe shifted) [4] was > 70.

In the case of “TAATTGGATCTTTGTTAATTGCAGTTTT (double strand) [GntR_1482 negative oligo]”, the binding signal (% probe shifted) [1] is reported as < 10.

In the case of “TATAGCACCGGTAACATTACAAATCATAGAAT (double strand) [GlyR2 test oligo]”, the binding signal (% probe shifted) [5] is reported as > 70.

For “TGATATGGGGTGTTTGCTGTTTTTGCC (double strand) [negative oligo 27 bp]”, the binding signal (% probe shifted) [3] was < 10, the binding signal (% probe shifted) [5] was < 10 and the binding signal (% probe shifted) [4] was < 10.
